Percent of soluble full-length mutant htt associated with 3xFlag20Q-htt data for 1 substance are collected here from PMC3499431.

The experiment concerns the target 3xFlag20Q-htt (full-length humanized normal huntingtin, chimeric mouse/human exon 1 with a 20Q stretch and the human PRR, with a 3xFlag N-terminal epitope tag) (mouse | human). The experiment is described as follows: co-IP; 500 ug whole brain cytoplasmic extract (mice 13, 16 or 27 months old) with 5-6 ug FLAG M2 or 1C2 antibody overnight at 4°C, captured on Protein G-agarose beads for 3 hr; same extraction buffer; eluted by boiling in SDS sample buffer; bound and non-bound fractions blotted with 1C2 and MAB2166; control without antibody.

With “140Q-htt (soluble full-length mutant huntingtin of the CAG140 knock-in allele, chimeric mouse/human exon 1 with a 140Q stretch and the human PRR) (natural protein)”, the percent of soluble full-length mutant htt associated with 3xFlag20Q-htt is under 2.5%.
